{
  "source": "the DeepSol protein solubility set",
  "data": [
    {"experiment": "soluble on expression in E. coli; label from the status in PepcDB or PDB records", "values": [
      {"sequence": "MAADGTYDELERGEKSKLRDDVVDIQKKPFSILFMGVEDYSTNGEHGRTDSLIVVTLDPKKKSMKMLSIPRDTRVHLASDTTGTKTKINAAYAKGGKDETIETVEDFLGIPIDYYATVDFDGFKDVIDEIGGIDVDVPFDFSEKSDVSKSKRIYFKKGNMHLNGEEALAYARMRKQDKRGDFGRNDRQKQILKAALDQISKPQNLAKIDTIAQKASKNIQTNFRITQALALQQIYSGFAGDDIKTLNITGQDLTIANVYYFEPDQQNLENVQNELTHHLYPLEHHHHHH", "soluble on expression in E. coli": "soluble"},
      {"sequence": "MAAEGVRVEGDWSRLVETIRNLNLSKSELRMLNAQIAQIVAEGSKERFETEKSPEGERWEPLSPATLEARARRRTRRKDGTSGYRTKRGKLSKRAERIIASGRPLKDTGRLMRSIATKATAEAAVIGTNLVQAAIQQLGGKAGRGKKVEIPARPYLGVSSSEEADIMELINEFIRERIQ", "soluble on expression in E. coli": "not soluble"},
      {"sequence": "MAAIGVHLGCTSACVAVYKDGRAGVVANDAGDRVTPAVVAYSENEEIVGLAAKQSRIRNISNTVMKVKQILGRSSSDPQAQKYIAESKCLVIEKNGKLRYEIDTGEETKFVNPEDVARLIFSKMKETAHSVLGSDANDVVITVPFDFGEKQKNALGEAARAAGFNVLRLIHEPSAALLAYGIGQDSPTGKSNILVFKLGGTSLSLSVMEVNSGIYRVLSTNTDDNIGGAHFTETLAQYLASEFQRSFKHDVRGNARAMMKLTNSAEVAKHSLSTLGSANCFLDSLYEGQDFDCNVSRARFELLCSPLFNKCIEAIRGLLDQNGFTADDINKVVLCGGSSRIPKLQQLIKDLFPAVELLNSIPPDEVIPIGAAIEAGILIGKENLLVEDSLMIECSARDILVKGVDESGASRFTVLFPSGTPLPARRQHTLQAPGSISSVCLELYESDGKNSAKEETKFAQVVLQDLDKKENGLRDILAVLTMKRDGSLHVTCTDQETGKCEAISIEIAS", "soluble on expression in E. coli": "not soluble"},
      {"sequence": "MAAISFPLLQLPNFALNKTLKLMCVVPHLYLSIISKKAKRCITAVNEKPLYVHINKASSISLRLTTKSFQNFEFIITPGQSDLEIRKYITTRPLFNSYLSTNQCVLGVTAKQWIELIAQVFIQDKGVLLKLQNSNKFNIKEIQYYTRELNIVRLKIESSELQDTQLSKMFPKVEELTVTRDKIPSSILSRNFKKLRFDDIKVSLDNILISNCSSFLIFLQTLPDKDLNRFMKLWIKESNPNLKTFEVCFPDYEQTGLDGTILFKGIRCIDSIKHGEVTRKKFKRHDGTTALVSVFASTSFHFCMTVVG", "soluble on expression in E. coli": "not soluble"},
      {"sequence": "MAAISLAKVEETAPALVSLYKSAGVSLHKHGLDGQRAAVYLVVDYSGSMRPYYKDGSVQALTDRVLGLSAHLDDDGTVPVVFFSTDIDAVTDIALADHQGHIELIVAGLGHMGKTSYHLAMDAVIDHYLDSGSKDPAFVVFQTDGGPTSKPAAERYLCKAAELPLFWQFIGFGDPGSRQFEFLRKLDELAVPHKRVVDNAGFFHAGTDPRKVSDGELYDRLVGEFPQWLAAARTHGIVRLEHHHHHH", "soluble on expression in E. coli": "not soluble"},
      {"sequence": "MAAMITPPGAGVKDKKRAILEATLAVLRERGLSGLKMEEVARRAEVGKGTIYLYFRDKRDLLKALVEERTWAFYREVEEVVRRKAPFFVRLEEVLRRRLAWVQEWRGLWAAVAREAMDDPTPWLKGLHEHYLRLLEELLRSGQSEGAVRTGLSPRATAAVIAAMGCTPSLEVEAYLEHLMEVLRKGVEP", "soluble on expression in E. coli": "soluble"},
      {"sequence": "MAASRALSLTAEAVRAVIPRRSGRLLTRWETTSSIPEAGEGQIRLTDSCVQVGGRTRGGGAQEGSRRLPSHPSRYLRLLGILDPLS", "soluble on expression in E. coli": "not soluble"},
      {"sequence": "MAATSRPERVWPDGVIPFVIGGNFTGSQRAVFRQAMRHWEKHTCVTFLERTDEDSYIVFTYRPCGCCSYVGRRGGGPQAISIGKNCDKFGIVVHELGHVVGFWHEHTRPDRDRHVSIVRENIQPGQEYNFLKMEPQEVESLGETYDFDSIMHYARNTFSRGIFLDTIVPKYEVNGVKPPIGQRTRLSKGDIAQARKLYKCPA", "soluble on expression in E. coli": "soluble"},
      {"sequence": "MAAVILESIFLKRSQQKKKTSPLNFKKRLFLLTVHKLSYYEYDFERGRRGSKKGSIDVEKITCVETVVPEKNPPPERQIPRRGEESSEMEQISIIERFPYPFQVVYDEGPLYVFSPTEELRKRWIHQLKNVIRYNSDLVQKYHPCFWIDGQYLCCSQTAKNAMGCQILENRNGSLKPGSSHRKTKKPLPPTPEEDQILKKPLPPEPAAAPVSTSELKKVVALYDYMPMNANDLQLRKGDEYFILEESNLPWWRARDKNGQEGYIPSNYVTEAEDSIEMYEWYSKHMTRSQAEQLLKQEGKEGGFIVRDSSKAGKYTVSVFAKSTGDPQGVIRHYVVCSTPQSQYYLAEKHLFSTIPELINYHQHNSAGLISRLKYPVSQQNKNAPSTAGLGYGSWEIDPKDLTFLKELGTGQFGVVKYGKWRGQYDVAIKMIKEGSMSEDEFIEEAKVMMNLSHEKLVQLYGVCTKQRPIFIITEYMANGCLLNYLREMRHRFQTQQLLEMCKDVCEAMEYLESKQFLHRDLAARNCLVNDQGVVKVSDFGLSRYVLDDEYTSSVGSKFPVRWSPPEVLMYSKFSSKSDIWAFGVLMWEIYSLGKMPYERFTNSETAEHIAQGLRLYRPHLASEKVYTIMYSCWHEKADERPTFKILLSNILDVMDEES", "soluble on expression in E. coli": "soluble"},
      {"sequence": "MACKNPKKFFPIRKSPVLRDGAFKGKLVLVTGGGTGIGKAIATTFAHLRATVVIAARRMEKLEQTARDITKITGGTCEPFQMDIKDPGMVSDAFDKIDMKFGKVPEILVNNAAGNFIMATELLSSNAYGTIIDIVLKGTFNVTTELGKRCIQNKTGASITSITAGYARAGAPFIVPSAVSKAGVETMTKSLATEWSKYGLRFNAVSPGPIPTKGAWGRLNSGEMGDIAEKMKFLNPEGRVGSPEEVANLVAFISSDHMSFLNGAIIDLDGGQQHFNHGSHMGDFLHSWDHKNWEDAENLIRGRTGKEKA", "soluble on expression in E. coli": "not soluble"},
      {"sequence": "MACLSPSQLQKFQQDGFLVLEGFLSAEECVAMQQRIGEIVAEMDVPLHCRTEFSTQEEEQLRAQGSTDYFLSSGDKIRFFFEKGVFDEKGNFLVPPEKSINKIGHALHAHDPVFKSITHSFKVQTLARSLGLQMPVVVQSMYIFKQPHFGGEVSPHQDASFLYTEPLGRVLGVWIAVEDATLENGCLWFIPGSHTSGVSRRMVRAPVGSAPGTSFLGSEPARDNSLFVPTPVQRGALVLIHGEVVHKSKQNLSDRSRQAYTFHLMEASGTTWSPENWLQPTAELPFPQLYT", "soluble on expression in E. coli": "soluble"},
      {"sequence": "MADDGVNPKAFPLADTNLSQKLMDLVQQAMNYKQLKKGANEATKTLNRGISEIIVMAADAEPLEILLHLPLLCEDKNVPYVFVRSKAALGRACGVTRPVIAASITQNEGSQLKSQIQKIKEDVEKLLI", "soluble on expression in E. coli": "not soluble"},
      {"sequence": "MADEIAKAQVARPGGDTIFGKIIRKEIPAKIIFEDDQCLAFHDISPQAPTHFLVIPKKHISQISAAEDADESLLGHLMIVGKKCAADLGLKKGYRMVVNEGSDGGQSVYHVHLHVLGGRQMNWPPG", "soluble on expression in E. coli": "soluble"},
      {"sequence": "MADEQEIMCKLESIKEIRNKTLQMEKIKARLKAEFEALESEERHLKEYKQEMDLLLQEKMAHVEELRLIHADINVMENTIKQSENDLNKLLESTRRLHDEYKPLKEHVDALRMTLGLQRLPDLCEEEEKLSLDYFEKQKAEWQTEPQEPPIPESLAAAAAAAQQLQVARKQDTRQTATFRQQPPPMKACLSCHQQIHRNAPICPLCKAKSRSRNPKKPKRKQDE", "soluble on expression in E. coli": "not soluble"},
      {"sequence": "MADKDTYTGFCIIKEGTKISKSGWEVLSFTTQEASGEGAGNGLAKCLIDGDTETFWHAKWQGGSDPLPYDIVIDMKQNIQIAQVELLPRGRGSNNPIKVVEFAASEDNVNWTPIGRFGFTNQDAALEYYVKSIKARYIRLTIPDDGGNSTVAAIRELDVKGTIINLEHHHHHH", "soluble on expression in E. coli": "soluble"},
      {"sequence": "MADKSAEKERLFNEWFTASYDRLRGTLRRYGMLDEDNFHDTYLFVRRQVLVPGKDITDYDAYFIGCYKKAALVKIKRENRYAHPEDDFFLRCGEEAKFLSEDDLNGCERLVRDILRFVRQKFSYEEYRMFMLRFYEAQFSFKALAECMGISASAISQKVCRIVDAVRTHSGFAWRSQMLAVESFMY", "soluble on expression in E. coli": "not soluble"},
      {"sequence": "MADLERYLKRARGGRVVRTGFLDPEDQARLEEMARREGIRVAFFGGFPLAERKVAVLYPEEVPSVSDPVEVVLLDRPPPADLGEVLGEVEEVEEGVLAALLPEGRKALEAQGYRLLPPPEGALRPPRERVRTLVVPSLRVDAVGAKGFGVSRSYFAQGVKAGKVRLKGRPASPKDELAPGDLLFAEGLGTLRLLEVVGKTVRGNYKIKVEVER", "soluble on expression in E. coli": "soluble"},
      {"sequence": "MADRLIVKGAREHNLRSVDLDLPRDALIVFTGLSGSGKSSLAFDTIFAEGQRRYVESLSAYARQFLGQMDKPDVDFIEGLSPAVSIDQKSTNRNPRSTVGTITEVYDYLRLLYARAGTPHCPTCGERVARQTPQQIVDQVLAMPEGTRFLVLAPVVRTRKGEFADLFDKLNAQGYSRVRVDGVVHPLTDPPKLKKQEKHDIEVVVDRLTVKAAAKRRLTDSVETALNLADGIVVLEFVDHELGAPHREQRFSEKLACPNGHALAVDDLEPRSFSFNSPYGACPECSGLGIRKEVDPELVVPDPDRTLAQGAVAPWSNGHTAEYFTRMMAGLGEALGFDVDTPWRKLPAKARKAILEGADEQVHVRYRNRYGRTRSYYADFEGVLAFLQRKMSQTESEQMKERYEGFMRDVPCPVCAGTRLKPEILAVTLAGESKGEHGAKSIAEVCELSIADCADFLNALTLGPREQAIAGQVLKEIRSRLGFLLDVGLEYLSLSRAAATLSGGEAQRIRLATQIGSGLVGVLYVLDEPSIGLHQRDNRRLIETLTRLRDLGNTLIVVEHDEDTIEHADWIVDIGPGAGEHGGRIVHSGPYDELLRNKDSITGAYLSGRESIEIPAIRRSVDPRRQLTVVGAREHNLRGIDVSFPLGVLTSVTGVSGSGKSTLVNDILAAVLANRLNGARQVPGRHTRVTGLDYLDKLVRVDQSPIGRTPRSNPATYTGVFDKIRTLFAATTEAKVRGYQPGRFSFNVKGGRCEACTGDGTIKIEMNFLPDVYVPCEVCQGARYNRETLEVHYKGKTVSEVLDMSIEEAAEFFEPIAGVHRYLRTLVDVGLGYVRLGQPAPTLSGGEAQRVKLASELQKRSTGRTVYILDEPTTGLHFDDIRKLLNVINGLVDKGNTVIVIEHNLDVIKTSDWIIDLGPEGGAGGGTVVAQGTPEDVAAVPASYTGKFLAEVVGGGASAATSRSNRRRNVSA", "soluble on expression in E. coli": "soluble"},
      {"sequence": "MADTGEVQFMKPFISEKSSKSLEIPLGFNEYFPAPFPITVDLLDYSGRSWTVRMKKRGEKVFLTVGWENFVKDNNLEDGKYLQFIYDRDRTFYVIIYGHNMCSEYRDFPQVAVEVDDYENGEEEEDGDDQDKHQ", "soluble on expression in E. coli": "soluble"},
      {"sequence": "MADTRPERRFTRIDRLPPYVFNITAELKMAARRRGEDIIDFSMGNPDGATPPHIVEKLCTVAQRPDTHGYSTSRGIPRLRRAISRWYQDRYDVEIDPESEAIVTIGSKEGLAHLMLATLDHGDTVLVPNPSYPIHIYGAVIAGAQVRSVPLVEGVDFFNELERAIRESYPKPKMMILGFPSNPTAQCVELEFFEKVVALAKRYDVLVVHDLAYADIVYDGWKAPSIMQVPGARDVAVEFFTLSKSYNMAGWRIGFMVGNKTLVSALARIKSYHDYGTFTPLQVAAIAALEGDQQCVRDIAEQYKRRRDVLVKGLHEAGWMVEMPKASMYVWAKIPEPYAAMGSLEFAKKLLNEAKVCVSPGIGFGDYGDTHVRFALIENRDRIRQAIRGIKAMFRADGLLPASSKHIHENAE", "soluble on expression in E. coli": "soluble"}
    ]}
  ]
}
